Values quoted from earlier work in paper PMC5433096.

Molecular target: PhoB (Escherichia coli) (UniProt P0AFJ5)
Chain of UniProt P0AFJ5 (P0AFJ5 whole entry): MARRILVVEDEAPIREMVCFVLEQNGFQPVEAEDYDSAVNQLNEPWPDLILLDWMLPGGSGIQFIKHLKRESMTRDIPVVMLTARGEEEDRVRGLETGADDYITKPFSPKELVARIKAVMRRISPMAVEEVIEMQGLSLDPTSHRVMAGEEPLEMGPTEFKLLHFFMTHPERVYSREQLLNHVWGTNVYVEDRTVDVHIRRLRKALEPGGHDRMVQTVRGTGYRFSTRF

Kd: 3000 nM
Substance: PhoR (from UniProt P08400)
